Experimental data as given in publication PMC9482650, “Quantitative fragmentomics allow affinity mapping of interactomes” (Nature Communications, 2022).

How the values were obtained:
Format in all cases: cell-based, human
SCRIB = assay: Western blot in stable HEK293T cell lines; conditions: for SCRIB relative protein level: source data of Figure 6 E, stable HEK293T cell line, IRES control line about 1
HUWE1 = assay: Label-free MS proteome of stable HEK293T cell lines; conditions: stable HEK293T cells compared to control cell line, n = 3
Description: Proteins were identified by database searching using SequestHT (Thermo Fisher Scientific) with Proteome Discoverer 2.4 software (PD2.4, Thermo Fisher Scientific) on human FASTA database downloaded from SwissProt (reviewed, release 2020_11_27, 20304 entries, https://www.uniprot.org/). Precursor and fragment mass tolerances were set at 7 ppm and 0.6 Da respectively, and up to two missed cleavages were allowed. Oxidation (M, +15.995 Da) was set as variable modification, and Carbamidomethylation (C, +57.021 Da) as fixed modification. Peptides and proteins were filtered with a false discovery rate at 1%. Label-free quantification was based on the extracted ion chromatography intensity of the peptides. All samples were measured in technical triplicates. The measured extracted ion chromatogram (XIC) intensities were normalized based on median intensities of the entire dataset to correct minor loading differences. […] The detection threshold for enriched proteins in AP-MS experiments were analyzed above twofold enrichment with <0.01 P value. […] In case only a specific isoform of the detected protein contains a PBM, the identified peptide fragments were manually checked to check which isoform(s) were most likely detected. […]

HEK293T cells = assay: Western blot of PDZ-proteins, p53 and E6AP in stable cell lines; conditions: source data of Figure 6 E, stable HEK293T cell line, IRES control line about 1

B1: E6: wild-type HPV16 E6 oncoprotein stably expressed in HEK293T cells (protein, UniProt P03126 1-158, looked up)
chain: MHQKRTAMFQDPQERPRKLPQLCTELQTTIHDIILECVYCKQQLLRREVYDFAFRDLCIVYRDGNPYAVCDKCLKFYSKISEYRHYCYSLYGTTLEQQYNKPLCDLLIRCINCQKPLCPEEKQRHLDKKQRFHNIRGRWTGRCMSCCRSSRTRRETQL
modifications: full-length
notes: wild-type HPV16 E6 oncoprotein stably expressed in HEK293T cells
- SCRIB relative protein level (SCRIB; replicate 1): 0.8205
- SCRIB relative protein level (SCRIB; replicate 2): 0.6696
- SCRIB relative protein level (SCRIB; replicate 3): 0.6225
- decrease of SCRIB levels (SCRIB; western blot, GAPDH normalized, stable HEK293T cells compared to control cells, n = 3): ~ 30%
- change of HUWE1 concentration (HUWE1): decreased by threefold
- E6AP relative protein level (HEK293T cells; replicate 1): 0.1109
- MAGI1 relative protein level (HEK293T cells; replicate 1): 1.104
- SNX27 relative protein level (HEK293T cells; replicate 1): 1.182
- p53 relative protein level (HEK293T cells; replicate 1): 0.0349
- E6AP relative protein level (HEK293T cells; replicate 2): 0.2467
- MAGI1 relative protein level (HEK293T cells; replicate 2): 0.7612
- SNX27 relative protein level (HEK293T cells; replicate 2): 0.5109
- p53 relative protein level (HEK293T cells; replicate 2): 0.03479
- E6AP relative protein level (HEK293T cells; replicate 3): 0.1353
- MAGI1 relative protein level (HEK293T cells; replicate 3): 0.6199
- SNX27 relative protein level (HEK293T cells; replicate 3): 0.8346
- p53 relative protein level (HEK293T cells; replicate 3): 0.01425
